B1: Serine/threonine-protein kinase A-Raf, residues 21 to 89; numbered along this chain, P10398 (parent)
chain: VKVYLPNKQRTVVTVRDGMSVYDSLDKALKVRGLNQDCCVVYRLIKGRKTVTAWDTAIAPLDGEELIVE

Variants of: B1
Assay: abundance fitness (aPCA) (normalised: wild type 0, dead -1); higher = more abundant; growth selection in yeast, the domain comes from the species named
Settings: Homo sapiens

Abundance fitness of substitutions, site by site:
N7: K -0.343, C -0.521, Y -0.19, H -0.272, Q -0.216, G 0.041, D 0.039, I -0.936, V -0.929, T -0.655, L -0.735, P -0.861, E -0.17, S -0.321, A -0.44, M -0.406, F -0.49
L5: V -0.896, F 0.102, S -0.818, A -0.772, C -0.784, M -0.064, T -0.916, K -0.99, R -1.1, P -0.778, Q -0.87, E -0.844, W 0.113
D17: G -0.096, L -0.319, Y -0.319, V -0.186, H -0.279, Q 0, S -0.04, A 0.039, I -0.221, W -0.304, T -0.178, P 0.075, C -0.418, K 0.017, F -0.114, M -0.144, E -0.032
K8: S -0.111, T -0.286, V -0.723, F -0.363, Q -0.031, M -0.107, I -0.683, D -0.133, Y -0.231, R -0.005, E 0, N 0.132, L -0.363, C -0.243, A -0.042, H -0.102, W -0.355, G 0.16, P -1.02
Y22: A 0.056
P6: W -1.01, H -0.683, C -0.55, G -0.463, L -0.804, S -0.233, Q -0.363
T14: K -0.008, W -0.098, A -0.078, C -0.251, E -0.138, P -0.005, V -0.126, F -0.01, D -0.205, M -0.113, S -0.156, L -0.172, H -0.213, G -0.295, N -0.097, Y -0.415, Q 0.034
V1: I -0.096, L -0.076, S -0.528, M -0.141, R -0.487
T11: L 0.052, E -0.108, M -0.002, S -0.582, F -0.08, R -0.652, I -0.072, G -0.919, K -0.371, D -0.233, V 0.038, W -0.652, Y -0.351, P -0.979, Q -0.1, C -0.064
V3: M -0.814, Q -1.02, L -0.191, D -0.794, E -0.745, P -1.01, S -0.856, I -0.298, W -0.877, Y -0.016, G -0.966, A -0.672, K -0.622, T -0.985, R -0.808, F -0.552, C -0.274
V15: H -0.122, A -0.017, R -0.822, W -0.093, M -0.234, P -0.257, C 0, F -0.001, D -0.33, L -0.105, N -0.408, I -0.088, T -0.147, G -0.17, S -0.179, Q -0.686, K -0.797
G18: S -0.239, A -0.513, T -0.405, W -0.636, E -0.25, V -0.663, K -0.08, Y -0.638, M -0.89, P -0.659, Q -0.305, H -0.244, R -0.373, D -0.143, C -0.261, F -0.651, I -0.882
K2: W -0.314, G -0.37, V -0.118, Q -0.32, N -0.139, R 0.038, D -0.416, P -0.528, L -0.349, S -0.172, Y -0.313, E -0.379, F -0.466, M -0.217, A -0.242, T 0.057
V21: K -0.493, Y -0.033, R -0.864, I -0.602, A -0.273, M -0.207, W -0.602, L 0.093, E -0.65, Q -0.834, S -0.858, G -1.04, P -0.99, F -0.392, T -0.964, H -0.996, C -0.707
R16: N -0.147, L -0.072, M -0.181, F -0.169, S -0.048, E -0.037, A -0.027, P -0.117, Y 0, I -0.073, V -0.133, D -0.106, G -0.108, K -0.045, C -0.028, T -0.086, H 0.191
R10: N 0.042, G -0.158, T 0.111, E 0.118, H 0.041, W 0.067, I 0.258, P -0.318, S 0.177, K -0.002, A -0.15, Q 0.036, C 0.025, M 0.139, V 0.187, L -0.059, Y 0.051, F 0.147, D -0.281
V13: L -0.202, K -0.955, M -0.892, F -0.795, D -0.714, I 0.039, W -0.856, E -0.857, Q -0.468, P -0.772, T -0.864, C -0.206, S -1, R -0.78, G -1.06
Q9: R -0.211, A -0.198, C -0.479, V -0.035, Y -0.458, H -0.559, D 0.028, W -0.448, E -0.008, M -0.149, N -0.332, I -0.162, S -0.11, G -0.297, T -0.209, K -0.042, P -0.876, L -0.455
S20: R -0.352, W -0.847, A -0.808, C -0.31, V -0.876, P -0.728, F -0.844, Q -0.799, G -0.94, L -0.91, N -0.122, E -0.913, D -0.296, M -0.832, T 0, Y -0.623
M19: D -0.09, V -0.057, T -0.034, C -0.091, Y -0.352, P -0.778, W -0.053, E -0.013, L -0.154, K -0.223, H -0.491, F -0.274, R -0.218, A -0.17, I -0.413, Q 0.011, G -0.216
Y4: W -0.045, K 0.069, H 0.048, D -0.601, S -0.022, V 0.011, R 0, L 0.068, A -0.217, E -0.133, M 0.032, F -0.063, P -0.96, Q 0.009, C -0.366, G -0.663, T -0.101, I -0.001
V12: E -0.066, L -0.189, T -0.096, M -0.264, W -0.067, G -0.983, Y 0.019, C -0.304, D -0.341, A -0.503, R -0.096, K -0.111, Q -0.18, H -0.115, F -0.254, I -0.117, N -0.325, P -0.748

— the Human Domainome abundance scans (Beltran et al. 2025)
